These results are taken from paper PMC10412585 (2023).

For experiment [1], the target named is BFAR_(263-271) HLA-E single chain trimer (soluble, biotinylated) (human, biotin (AviTag)). As to the kind of experiment: SPR.
Experiment [2] deals with CREB3L1_(419-427) HLA-E single chain trimer (soluble, biotinylated) (human, biotin (AviTag)). The experiment in a line: SPR.
Experiment [3] addresses AKAP6_(388-396) HLA-E single chain trimer (soluble, biotinylated) (human, biotin (AviTag)). The experiment in a line: SPR.
Experiment [4] has as its target PISD_(55-63) HLA-E single chain trimer (soluble, biotinylated) (human, biotin (AviTag)). The experiment in a line: SPR.
Experiment [5] addresses … peptide HLA-E single chain trimer (soluble, biotinylated) (human, biotin (AviTag)). As to the kind of experiment: SPR.
In experiment [6] the target is GTF3C5_(293-301) HLA-E single chain trimer (soluble, biotinylated) (human, biotin (AviTag)). The experiment in a line: SPR; weak binder not approaching saturation, inexact.

B1: CD94/NKG2C single-chain fusion protein (human NKG2C ectodomain - GGSGGS - human CD94 ectodomain), produced in Hi5 cells for SPR (receptor)
chain: not shown
For the molecule B1, the Kd in experiment [1] was ~1.8 µM; in experiment [2], ~9.8 µM; in experiment [3] it was ~15.6 µM; in experiment [4] it was ~16 µM; in experiment [5] it was ~23.8 µM; in experiment [6], ~92.4 µM.

B2: CD94/NKG2A single-chain fusion protein (human NKG2A ectodomain - GGSGGS - human CD94 ectodomain), produced in Hi5 cells for SPR (receptor)
chain: not shown
For the molecule B2, the Kd in experiment [1] was ~0.8 µM; in experiment [2], ~3.3 µM; in experiment [3], ~4.1 µM; in experiment [4], ~12.1 µM; in experiment [5] it was ~8.9 µM; in experiment [6], ~28.1 µM.
